Read-outs that look alike come from different tables or passages of the source.

Experiment in all cases: SPR
(SPR reads the build-up and loss of mass on a sensor chip optically.)

In data set [1] the target is T1, L7Ae-K (L7-K) (Archaeoglobus fulgidus, UniProt O29494 1-119, K37A).
For data set [2], the target named is T2, L7Ae (Archaeoglobus fulgidus, UniProt O29494 1-119).
Data set [3] deals with T2, L7Ae. This is another data set of the same source.
Data set [4] deals with T1, L7Ae-K (L7-K). The source holds these as a separate data set.

T2 sequence (O29494 whole entry): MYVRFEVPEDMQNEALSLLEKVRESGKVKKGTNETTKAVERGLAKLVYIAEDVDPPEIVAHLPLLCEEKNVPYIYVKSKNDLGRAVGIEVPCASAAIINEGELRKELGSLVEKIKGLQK
T1 sequence (O29494 whole entry K37A): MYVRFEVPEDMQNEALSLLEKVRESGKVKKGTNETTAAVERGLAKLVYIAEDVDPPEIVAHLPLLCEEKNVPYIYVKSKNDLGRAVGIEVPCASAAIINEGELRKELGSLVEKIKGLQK

By Kd is commonly meant the constant that tells how readily two partners part at equilibrium. A high value points to a looser complex. Turning to GGAUCUGGGGUCUGAACGGUGAUGACCCGGAUCC (structured_RNA) [K-loop], the results for the Kd with L7Ae-K (L7-K) [1] and in the data set with L7Ae [2] were 26 nM and 2.2 nM, respectively.

For GGAUCUGGGGCGUGAUCCGAAAGGUGACCCGGAUCC (structured_RNA) [K-turn], the Kd with L7Ae [3] came out at 1.6 nM; with L7Ae-K (L7-K) [4], 15 nM.

Values taken from paper PMC4165468.
